Measurements reported in patent US12679878B2, “CRF2 receptor agonists and their use in therapy” (SANOFI, priority 2020, dated 2026).
Starred links: 1 amine or outer side, 2 acyl side, 3 side chain; linkers in the order of their positions; H or OH if unused. Non-standard residues stand in square brackets, D forms with d. Groups on a side chain read outwards from the residue. No end group written: not given here. *: point of attachment. γGlu = O=C(O)[C@H](CCC(=O)[*:2])N[*:1]; Palmitoyl = CCCCCCCCCCCCCCCC(=O)*; Aib = CC(C)(N)C(=O)O

These binders were tested against human corticotropin-releasing factor 2α (CRF2 α receptor) (human), Q13324 (assay: cell-based or functional assay).
Sequence of human corticotropin-releasing factor 2α (CRF2 α receptor) (human), Q13324 (Q13324 20-411): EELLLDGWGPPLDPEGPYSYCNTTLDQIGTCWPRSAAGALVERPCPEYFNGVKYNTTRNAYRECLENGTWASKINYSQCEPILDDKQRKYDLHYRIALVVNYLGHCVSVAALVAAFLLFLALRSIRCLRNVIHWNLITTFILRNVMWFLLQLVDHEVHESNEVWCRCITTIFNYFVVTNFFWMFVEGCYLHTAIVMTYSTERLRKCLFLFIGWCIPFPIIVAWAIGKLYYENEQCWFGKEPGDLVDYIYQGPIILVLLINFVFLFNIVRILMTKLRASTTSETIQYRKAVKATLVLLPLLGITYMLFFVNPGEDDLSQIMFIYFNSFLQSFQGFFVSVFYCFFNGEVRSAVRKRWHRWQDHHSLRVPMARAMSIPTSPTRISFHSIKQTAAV

Binder	EC50 [nM], 0% HSA [nM]
IVLSLD[dV]PTKLK([γGlu-Palmitoyl])KKLLKQERKRKERE[Aib]AEKNARILERV-NH2 (N-terminus assumed; SMILES CCCCCCCCCCCCCCCC(=O)N[C@@H](CCC(=O)NCCCC[C@H](NC(=O)[C@H](CC(C)C)NC(=O)[C@H](CCCCN)NC(=O)[C@@H](NC(=O)[C@@H]1CCCN1C(=O)[C@H](NC(=O)[C@H](CC(=O)O)NC(=O)[C@H](CC(C)C)NC(=O)[C@H](CO)NC(=O)[C@H](CC(C)C)NC(=O)[C@@H](NC(=O)[C@@H](N)[C@@H](C)CC)C(C)C)C(C)C)[C@@H](C)O)C(=O)N[C@@H](CCCCN)C(=O)N[C@@H](CCCCN)C(=O)N[C@@H](CC(C)C)C(=O)N[C@@H](CC(C)C)C(=O)N[C@@H](CCCCN)C(=O)N[C@@H](CCC(N)=O)C(=O)N[C@@H](CCC(=O)O)C(=O)N[C@@H](CCCNC(=N)N)C(=O)N[C@@H](CCCCN)C(=O)N[C@@H](CCCNC(=N)N)C(=O)N[C@@H](CCCCN)C(=O)N[C@@H](CCC(=O)O)C(=O)N[C@@H](CCCNC(=N)N)C(=O)N[C@@H](CCC(=O)O)C(=O)NC(C)(C)C(=O)N[C@@H](C)C(=O)N[C@@H](CCC(=O)O)C(=O)N[C@@H](CCCCN)C(=O)N[C@@H](CC(N)=O)C(=O)N[C@@H](C)C(=O)N[C@@H](CCCNC(=N)N)C(=O)N[C@H](C(=O)N[C@@H](CC(C)C)C(=O)N[C@@H](CCC(=O)O)C(=O)N[C@@H](CCCNC(=N)N)C(=O)N[C@H](C(N)=O)C(C)C)[C@@H](C)CC)C(=O)O) [SEQ ID NO: 26]	0.01
IVLSLD[dV]PTKLK([γGlu-Palmitoyl])KKLLKQERKRKEREQAEKNARILERV-NH2 (N-terminus assumed; SMILES CCCCCCCCCCCCCCCC(=O)N[C@@H](CCC(=O)NCCCC[C@H](NC(=O)[C@H](CC(C)C)NC(=O)[C@H](CCCCN)NC(=O)[C@@H](NC(=O)[C@@H]1CCCN1C(=O)[C@H](NC(=O)[C@H](CC(=O)O)NC(=O)[C@H](CC(C)C)NC(=O)[C@H](CO)NC(=O)[C@H](CC(C)C)NC(=O)[C@@H](NC(=O)[C@@H](N)[C@@H](C)CC)C(C)C)C(C)C)[C@@H](C)O)C(=O)N[C@@H](CCCCN)C(=O)N[C@@H](CCCCN)C(=O)N[C@@H](CC(C)C)C(=O)N[C@@H](CC(C)C)C(=O)N[C@@H](CCCCN)C(=O)N[C@@H](CCC(N)=O)C(=O)N[C@@H](CCC(=O)O)C(=O)N[C@@H](CCCNC(=N)N)C(=O)N[C@@H](CCCCN)C(=O)N[C@@H](CCCNC(=N)N)C(=O)N[C@@H](CCCCN)C(=O)N[C@@H](CCC(=O)O)C(=O)N[C@@H](CCCNC(=N)N)C(=O)N[C@@H](CCC(=O)O)C(=O)N[C@@H](CCC(N)=O)C(=O)N[C@@H](C)C(=O)N[C@@H](CCC(=O)O)C(=O)N[C@@H](CCCCN)C(=O)N[C@@H](CC(N)=O)C(=O)N[C@@H](C)C(=O)N[C@@H](CCCNC(=N)N)C(=O)N[C@H](C(=O)N[C@@H](CC(C)C)C(=O)N[C@@H](CCC(=O)O)C(=O)N[C@@H](CCCNC(=N)N)C(=O)N[C@H](C(N)=O)C(C)C)[C@@H](C)CC)C(=O)O) [SEQ ID NO: 27]	0.01
IVLSLD[dV]PTKLK([γGlu-Palmitoyl])KKLLKQERKRKEREQAEKAARILERV-NH2 (N-terminus assumed; SMILES CCCCCCCCCCCCCCCC(=O)N[C@@H](CCC(=O)NCCCC[C@H](NC(=O)[C@H](CC(C)C)NC(=O)[C@H](CCCCN)NC(=O)[C@@H](NC(=O)[C@@H]1CCCN1C(=O)[C@H](NC(=O)[C@H](CC(=O)O)NC(=O)[C@H](CC(C)C)NC(=O)[C@H](CO)NC(=O)[C@H](CC(C)C)NC(=O)[C@@H](NC(=O)[C@@H](N)[C@@H](C)CC)C(C)C)C(C)C)[C@@H](C)O)C(=O)N[C@@H](CCCCN)C(=O)N[C@@H](CCCCN)C(=O)N[C@@H](CC(C)C)C(=O)N[C@@H](CC(C)C)C(=O)N[C@@H](CCCCN)C(=O)N[C@@H](CCC(N)=O)C(=O)N[C@@H](CCC(=O)O)C(=O)N[C@@H](CCCNC(=N)N)C(=O)N[C@@H](CCCCN)C(=O)N[C@@H](CCCNC(=N)N)C(=O)N[C@@H](CCCCN)C(=O)N[C@@H](CCC(=O)O)C(=O)N[C@@H](CCCNC(=N)N)C(=O)N[C@@H](CCC(=O)O)C(=O)N[C@@H](CCC(N)=O)C(=O)N[C@@H](C)C(=O)N[C@@H](CCC(=O)O)C(=O)N[C@@H](CCCCN)C(=O)N[C@@H](C)C(=O)N[C@@H](C)C(=O)N[C@@H](CCCNC(=N)N)C(=O)N[C@H](C(=O)N[C@@H](CC(C)C)C(=O)N[C@@H](CCC(=O)O)C(=O)N[C@@H](CCCNC(=N)N)C(=O)N[C@H](C(N)=O)C(C)C)[C@@H](C)CC)C(=O)O) [SEQ ID NO: 30]	0.16
IVLSLD[dV]PTKLK([γGlu-Palmitoyl])KKLLKQERKRKEREKAEKAARILERV-NH2 (N-terminus assumed; SMILES CCCCCCCCCCCCCCCC(=O)N[C@@H](CCC(=O)NCCCC[C@H](NC(=O)[C@H](CC(C)C)NC(=O)[C@H](CCCCN)NC(=O)[C@@H](NC(=O)[C@@H]1CCCN1C(=O)[C@H](NC(=O)[C@H](CC(=O)O)NC(=O)[C@H](CC(C)C)NC(=O)[C@H](CO)NC(=O)[C@H](CC(C)C)NC(=O)[C@@H](NC(=O)[C@@H](N)[C@@H](C)CC)C(C)C)C(C)C)[C@@H](C)O)C(=O)N[C@@H](CCCCN)C(=O)N[C@@H](CCCCN)C(=O)N[C@@H](CC(C)C)C(=O)N[C@@H](CC(C)C)C(=O)N[C@@H](CCCCN)C(=O)N[C@@H](CCC(N)=O)C(=O)N[C@@H](CCC(=O)O)C(=O)N[C@@H](CCCNC(=N)N)C(=O)N[C@@H](CCCCN)C(=O)N[C@@H](CCCNC(=N)N)C(=O)N[C@@H](CCCCN)C(=O)N[C@@H](CCC(=O)O)C(=O)N[C@@H](CCCNC(=N)N)C(=O)N[C@@H](CCC(=O)O)C(=O)N[C@@H](CCCCN)C(=O)N[C@@H](C)C(=O)N[C@@H](CCC(=O)O)C(=O)N[C@@H](CCCCN)C(=O)N[C@@H](C)C(=O)N[C@@H](C)C(=O)N[C@@H](CCCNC(=N)N)C(=O)N[C@H](C(=O)N[C@@H](CC(C)C)C(=O)N[C@@H](CCC(=O)O)C(=O)N[C@@H](CCCNC(=N)N)C(=O)N[C@H](C(N)=O)C(C)C)[C@@H](C)CC)C(=O)O) [SEQ ID NO: 28]	0.14
IVLSLD[dV]PTKLK([γGlu-Palmitoyl])KKLLKQERKRKERE[Aib]AEKAARILERV-NH2 (N-terminus assumed; SMILES CCCCCCCCCCCCCCCC(=O)N[C@@H](CCC(=O)NCCCC[C@H](NC(=O)[C@H](CC(C)C)NC(=O)[C@H](CCCCN)NC(=O)[C@@H](NC(=O)[C@@H]1CCCN1C(=O)[C@H](NC(=O)[C@H](CC(=O)O)NC(=O)[C@H](CC(C)C)NC(=O)[C@H](CO)NC(=O)[C@H](CC(C)C)NC(=O)[C@@H](NC(=O)[C@@H](N)[C@@H](C)CC)C(C)C)C(C)C)[C@@H](C)O)C(=O)N[C@@H](CCCCN)C(=O)N[C@@H](CCCCN)C(=O)N[C@@H](CC(C)C)C(=O)N[C@@H](CC(C)C)C(=O)N[C@@H](CCCCN)C(=O)N[C@@H](CCC(N)=O)C(=O)N[C@@H](CCC(=O)O)C(=O)N[C@@H](CCCNC(=N)N)C(=O)N[C@@H](CCCCN)C(=O)N[C@@H](CCCNC(=N)N)C(=O)N[C@@H](CCCCN)C(=O)N[C@@H](CCC(=O)O)C(=O)N[C@@H](CCCNC(=N)N)C(=O)N[C@@H](CCC(=O)O)C(=O)NC(C)(C)C(=O)N[C@@H](C)C(=O)N[C@@H](CCC(=O)O)C(=O)N[C@@H](CCCCN)C(=O)N[C@@H](C)C(=O)N[C@@H](C)C(=O)N[C@@H](CCCNC(=N)N)C(=O)N[C@H](C(=O)N[C@@H](CC(C)C)C(=O)N[C@@H](CCC(=O)O)C(=O)N[C@@H](CCCNC(=N)N)C(=O)N[C@H](C(N)=O)C(C)C)[C@@H](C)CC)C(=O)O) [SEQ ID NO: 29]	0.12

Results, then the binder that gave them:

EC50 [nM], 0% HSA [nM]	Binder
0.01	IVLSLD[dV]PTKLK([γGlu-Palmitoyl])QKLLKQERQRKEREQAEKNVRILERV-NH2 [SEQ ID NO: 32]
0.01	IVLSLD[dV]PTKLK([γGlu-Palmitoyl])QKLLKQERQRKEREQAEKN[Aib]RILERV-NH2 (N-terminus assumed; SMILES CCCCCCCCCCCCCCCC(=O)N[C@@H](CCC(=O)NCCCC[C@H](NC(=O)[C@H](CC(C)C)NC(=O)[C@H](CCCCN)NC(=O)[C@@H](NC(=O)[C@@H]1CCCN1C(=O)[C@H](NC(=O)[C@H](CC(=O)O)NC(=O)[C@H](CC(C)C)NC(=O)[C@H](CO)NC(=O)[C@H](CC(C)C)NC(=O)[C@@H](NC(=O)[C@@H](N)[C@@H](C)CC)C(C)C)C(C)C)[C@@H](C)O)C(=O)N[C@@H](CCC(N)=O)C(=O)N[C@@H](CCCCN)C(=O)N[C@@H](CC(C)C)C(=O)N[C@@H](CC(C)C)C(=O)N[C@@H](CCCCN)C(=O)N[C@@H](CCC(N)=O)C(=O)N[C@@H](CCC(=O)O)C(=O)N[C@@H](CCCNC(=N)N)C(=O)N[C@@H](CCC(N)=O)C(=O)N[C@@H](CCCNC(=N)N)C(=O)N[C@@H](CCCCN)C(=O)N[C@@H](CCC(=O)O)C(=O)N[C@@H](CCCNC(=N)N)C(=O)N[C@@H](CCC(=O)O)C(=O)N[C@@H](CCC(N)=O)C(=O)N[C@@H](C)C(=O)N[C@@H](CCC(=O)O)C(=O)N[C@@H](CCCCN)C(=O)N[C@@H](CC(N)=O)C(=O)NC(C)(C)C(=O)N[C@@H](CCCNC(=N)N)C(=O)N[C@H](C(=O)N[C@@H](CC(C)C)C(=O)N[C@@H](CCC(=O)O)C(=O)N[C@@H](CCCNC(=N)N)C(=O)N[C@H](C(N)=O)C(C)C)[C@@H](C)CC)C(=O)O) [SEQ ID NO: 31]
